# Numbering of substitutions follows the chain as printed.
# T1: LZTR1 R810W-FLAG (human, UniProt Q8N653 1-840)
# T1 construct: Stably expressed in U87 cells by lentivirus; also called LZTR1-FLAG-R810W; LZTR1 RW; not shown: FLAG tag
# T1 sequence (looked up): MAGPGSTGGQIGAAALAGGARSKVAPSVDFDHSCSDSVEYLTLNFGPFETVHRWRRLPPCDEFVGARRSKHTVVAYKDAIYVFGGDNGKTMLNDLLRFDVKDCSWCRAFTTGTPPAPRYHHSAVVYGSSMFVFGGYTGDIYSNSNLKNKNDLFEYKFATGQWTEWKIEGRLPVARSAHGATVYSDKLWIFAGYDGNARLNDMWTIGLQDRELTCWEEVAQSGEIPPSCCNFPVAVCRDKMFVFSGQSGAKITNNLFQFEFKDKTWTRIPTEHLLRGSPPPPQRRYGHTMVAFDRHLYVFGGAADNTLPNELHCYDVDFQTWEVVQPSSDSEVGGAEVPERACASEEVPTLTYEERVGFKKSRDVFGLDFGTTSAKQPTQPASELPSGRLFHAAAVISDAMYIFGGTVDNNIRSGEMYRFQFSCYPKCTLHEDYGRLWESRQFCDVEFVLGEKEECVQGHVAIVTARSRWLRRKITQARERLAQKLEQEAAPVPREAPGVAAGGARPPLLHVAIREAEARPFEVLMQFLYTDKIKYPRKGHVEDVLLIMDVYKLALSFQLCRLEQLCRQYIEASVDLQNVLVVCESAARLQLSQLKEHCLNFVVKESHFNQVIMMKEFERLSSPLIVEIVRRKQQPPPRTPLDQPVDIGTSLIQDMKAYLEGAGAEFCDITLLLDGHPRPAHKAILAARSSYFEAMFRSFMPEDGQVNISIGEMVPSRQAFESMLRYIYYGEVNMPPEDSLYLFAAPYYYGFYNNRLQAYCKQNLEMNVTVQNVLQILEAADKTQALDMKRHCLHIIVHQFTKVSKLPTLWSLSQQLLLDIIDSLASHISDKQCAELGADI
# T2: LZTR1-FLAG (human, UniProt Q8N653 1-840)
# T2 construct: Expressed in HEK 293T, HeLa or U87 cells; used as cell lysate; also called LZTR1 wild type-FLAG; LZTR1 WT; not shown: FLAG tag at the C-terminus
# T2 sequence (looked up): T1 sequence (looked up) with W810R
# B1: ADAM 15 (other, human, UniProt Q13444 207-863, looked up)
# chain: DVVTETKTVELVIVADHSEAQKYRDFQHLLNRTLEVALLLDTFFRPLNVRVALVGLEAWTQRDLVEISPNPAVTLENFLHWRRAHLLPRLPHDSAQLVTGTSFSGPTVGMAIQNSICSPDFSGGVNMDHSTSILGVASSIAHELGHSLGLDHDLPGNSCPCPGPAPAKTCIMEASTDFLPGLNFSNCSRRALEKALLDGMGSCLFERLPSLPPMAAFCGNMFVEPGEQCDCGFLDDCVDPCCDSLTCQLRPGAQCASDGPCCQNCQLRPSGWQCRPTRGDCDLPEFCPGDSSQCPPDVSLGDGEPCAGGQAVCMHGRCASYAQQCQSLWGPGAQPAAPLCLQTANTRGNAFGSCGRNPSGSYVSCTPRDAICGQLQCQTGRTQPLLGSIRDLLWETIDVNGTELNCSWVHLDLGSDVAQPLLTLPGTACGPGLVCIDHRCQRVDLLGAQECRSKCHGHGVCDSNRHCYCEEGWAPPDCTTQLKATSSLTTGLLLSLLVLLVLVMLGASYWYRARLHQRLCQLKGPTCQYRAAQSGPSERPGPPQRALLARGTKQASALSFPAPPSRPLPPDPVSKRLQAELADRPNPPTRPLPADPVVRSPKSQGPAKPPPPRKPLPADPQGRCPSGDLPGPGAGIPPLVVPSRPAPPPPTVSSLYL
# notes: Printed as ADAM 15; read as ADAM15
# B2: AHR (other, human, UniProt P35869 11-848, looked up)
# chain: ASRKRRKPVQKTVKPIPAEGIKSNPSKRHRDRLNTELDRLASLLPFPQDVINKLDKLSVLRLSVSYLRAKSFFDVALKSSPTERNGGQDNCRAANFREGLNLQEGEFLLQALNGFVLVVTTDALVFYASSTIQDYLGFQQSDVIHQSVYELIHTEDRAEFQRQLHWALNPSQCTESGQGIEEATGLPQTVVCYNPDQIPPENSPLMERCFICRLRCLLDNSSGFLAMNFQGKLKYLHGQKKKGKDGSILPPQLALFAIATPLQPPSILEIRTKNFIFRTKHKLDFTPIGCDAKGRIVLGYTEAELCTRGSGYQFIHAADMLYCAESHIRMIKTGESGMIVFRLLTKNNRWTWVQSNARLLYKNGRPDYIIVTQRPLTDEEGTEHLRKRNTKLPFMFTTGEAVLYEATNPFPAIMDPLPLRTKNGTSGKDSATTSTLSKDSLNPSSLLAAMMQQDESIYLYPASSTSSTAPFENNFFNESMNECRNWQDNTAPMGNDTILKHEQIDQPQDVNSFAGGHPGLFQDSKNSDLYSIMKNLGIDFEDIRHMQNEKFFRNDFSGEVDFRDIDLTDEILTYVQDSLSKSPFIPSDYQQQQSLALNSSCMVQEHLHLEQQQQHHQKQVVVEPQQQLCQKMKHMQVNGMFENWNSNQFVPFNCPQQDPQQYNVFTDLHGISQEFPYKSEMDSMPYTQNFISCNQPVLPQHSKCTELDYPMGSFEPSPYPTTSSLEDFVTCLQLPENQKHGLNPQSAIITPQTCYAGAVSMYQCQPEPQHTHVGQMQYNPVLPGQQAFLNKFQNGVLNETYPAELNNINNTQTTTHLQPLHHPSEARPFPDLTSSGFL
# B3: ARAF (other, human, UniProt P10398 1-606, looked up)
# chain: MEPPRGPPANGAEPSRAVGTVKVYLPNKQRTVVTVRDGMSVYDSLDKALKVRGLNQDCCVVYRLIKGRKTVTAWDTAIAPLDGEELIVEVLEDVPLTMHNFVRKTFFSLAFCDFCLKFLFHGFRCQTCGYKFHQHCSSKVPTVCVDMSTNRQQFYHSVQDLSGGSRQHEAPSNRPLNELLTPQGPSPRTQHCDPEHFPFPAPANAPLQRIRSTSTPNVHMVSTTAPMDSNLIQLTGQSFSTDAAGSRGGSDGTPRGSPSPASVSSGRKSPHSKSPAEQRERKSLADDKKKVKNLGYRDSGYYWEVPPSEVQLLKRIGTGSFGTVFRGRWHGDVAVKVLKVSQPTAEQAQAFKNEMQVLRKTRHVNILLFMGFMTRPGFAIITQWCEGSSLYHHLHVADTRFDMVQLIDVARQTAQGMDYLHAKNIIHRDLKSNNIFLHEGLTVKIGDFGLATVKTRWSGAQPLEQPSGSVLWMAAEVIRMQDPNPYSFQSDVYAYGVVLYELMTGSLPYSHIGCRDQIIFMVGRGYLSPDLSKISSNCPKAMRRLLSDCLKFQREERPLFPQILATIELLQRSLPKIERSASEPSLHRTQADELPACLLSAARLVP
# B4: AMOTL2 (other, human, UniProt Q9Y2J4 1-779, looked up)
# chain: MRTLEDSSGTVLHRLIQEQLRYGNLTETRTLLAIQQQALRGGAGTGGTGSPQASLEILAPEDSQVLQQATRQEPQGQEHQGGENHLAENTLYRLCPQPSKGEELPTYEEAKAHSQYYAAQQAGTRPHAGDRDPRGAPGGSRRQDEALRELRHGHVRSLSERLLQLSLERNGARAPSHMSSSHSFPQLARNQQGPPLRGPPAEGPESRGPPPQYPHVVLAHETTTAVTDPRYRARGSPHFQHAEVRILQAQVPPVFLQQQQQYQYLQQSQEHPPPPHPAALGHGPLSSLSPPAVEGPVSAQASSATSGSAHLAQMEAVLRENARLQRDNERLQRELESSAEKAGRIEKLESEIQRLSEAHESLTRASSKREALEKTMRNKMDSEMRRLQDFNRDLRERLESANRRLASKTQEAQAGSQDMVAKLLAQSYEQQQEQEKLEREMALLRGAIEDQRRRAELLEQALGNAQGRAARAEEELRKKQAYVEKVERLQQALGQLQAACEKREQLELRLRTRLEQELKALRAQQRQAGAPGGSSGSGGSPELSALRLSEQLREKEEQILALEADMTKWEQKYLEERAMRQFAMDAAATAAAQRDTTLIRHSPQPSPSSSFNEGLLTGGHRHQEMESRLKVLHAQILEKDAVIKVLQQRSRRDPGKAIQGSLRPAKSVPSVFAAAAAGTQGWQGLSSSERQTADAPARLTTDRAPTEEPVVTAPPAAHAKHGSRDGSTQTEGPPDSTSTCLPPEPDSLLGCSSSQRAASLDSVATSRVQDLSDMVEILI
# B5: APEH (other, human, UniProt P13798 1-732, looked up)
# chain: MERQVLLSEPEEAAALYRGLSRQPALSAACLGPEVTTQYGGQYRTVHTEWTQRDLERMENIRFCRQYLVFHDGDSVVFAGPAGNSVETRGELLSRESPSGTMKAVLRKAGGTGPGEEKQFLEVWEKNRKLKSFNLSALEKHGPVYEDDCFGCLSWSHSETHLLYVAEKKRPKAESFFQTKALDVSASDDEIARLKKPDQAIKGDQFVFYEDWGENMVSKSIPVLCVLDVESGNISVLEGVPENVSPGQAFWAPGDAGVVFVGWWHEPFRLGIRFCTNRRSALYYVDLIGGKCELLSDDSLAVSSPRLSPDQCRIVYLQYPSLIPHHQCSQLCLYDWYTKVTSVVVDVVPRQLGENFSGIYCSLLPLGCWSADSQRVVFDSAQRSRQDLFAVDTQVGTVTSLTAGGSGGSWKLLTIDQDLMVAQFSTPSLPPTLKVGFLPSAGKEQSVLWVSLEEAEPIPDIHWGIRVLQPPPEQENVQYAGLDFEAILLQPGSPPDKTQVPMVVMPHGGPHSSFVTAWMLFPAMLCKMGFAVLLVNYRGSTGFGQDSILSLPGNVGHQDVKDVQFAVEQVLQEEHFDASHVALMGGSHGGFISCHLIGQYPETYRACVARNPVINIASMLGSTDIPDWCVVEAGFPFSSDCLPDLSVWAEMLDKSPIRYIPQVKTPLLLMLGQEDRRVPFKQGMEYYRALKTRNVPVRLLLYPKSTHALSEVEVESDSFMNAVLWLRTHLGS
# Biological target: T1, LZTR1 R810W-FLAG
# Experiment: IP/MS, LZTR1 R810W-FLAG, U87
# Experimental: (§1) Lysates were immunoprecipitated with FLAG affinity matrix and eluted with FLAG peptide. […] Protein gel slices were excised and in-gel digestion performed as previously described (83), with minor modifications. Gel slices were washed with 1:1 A cetonitrile and 100 mM ammonium bicarbonate for 30 min then dehydrated with 100% acetonitrile for 10 min until shrunk. The excess acetonitrile was then removed and the slices dried in speed-vacuum at room temperature for 10 min. Gel slices were reduced with 5 mM DTT for 30 min at 56° C. in an air thermostat, cooled down to room temperature, and alkylated with 11 mM IAA for 30 min with no light. Gel slices were then washed with 100 mM of ammonium bicarbonate and 100% acetonitrile for 10 min each. Excess acetonitrile was removed and dried in a speed-vacuum for 10 min at room temperature and the gel slices were re-hydrated in a solution of 25 ng/μl trypsin in 50 mM ammonium bicarbonate for 30 min on ice and digested overnight at 37° C. in an air thermostat. Digested peptides were collected and further extracted from gel slices in extraction buffer (1:2 ratio by volume of 5% formic acid:acetonitrile) at high speed, shaking in an air thermostat. The supernatants from both extractions were combined and dried in a speed-vacuum. Peptides were dissolved in 3% acetonitrile/0.1% formic acid. Desalted peptides were injected in an EASY-Spray™ PepMap™ RSLC C18 50 cm×[…] column (Thermo Scientific) connected to an Orbitrap Fusion™ Tribrid™ (Thermo Scientific) as described in “Global ubiquitylation enrichment” section. The following modifications were used for protein identification and quantification: oxidation of methionine (M), acetylation of the protein N-terminus, and deamination for asparagine or glutamine (NQ). Results obtained from MaxQuant were assembled in Scaffold for data visualization.
row,binding result,Binder
1,binds,B1
2,binds,B2
3,binds,B3
4,binds,B4
5,binds,B5

# Biological target: T2, LZTR1-FLAG
# Experiment: IP/MS, LZTR1 wild type-FLAG, U87
# Experimental: as §1
row,binding result,Binder
1,binds,B1
2,binds,B2
3,binds,B4
4,binds,B5

# Source: patent publication US20250262210A1 (TRUSTEES OF COLUMBIA UNIVERSITY IN THE CITY OF NEW YORK, published 2025)
